Source: patent publication US20210032299A1 (Eli Lilly, published 2021)
Starred links: 1 amine or outer side, 2 acyl side, 3 side chain; linkers in the order of their positions; H or OH if unused. Non-standard residues stand in square brackets, D forms with d. Groups on a side chain read outwards from the residue. No end group written: not given here. *: point of attachment. C20 diacid = O=C(O)CCCCCCCCCCCCCCCCCCC(=O)*; αMePhe(2-F) = C[C@](N)(Cc1ccccc1F)C(=O)O; γGlu = O=C(O)[C@H](CCC(=O)[*:2])N[*:1]; 4Pal = N[C@@H](Cc1ccncc1)C(=O)O; AEEA = NCCOCCOCC(=O)O; Aib = CC(C)(N)C(=O)O

B1: Example 39 (peptide)
peptide: Y[Aib]EGT[αMePhe(2-F)]ISDYSIALDKK([AEEA-AEEA-γGlu-C20 diacid])HQ[Aib]DFVE[4Pal]LLEGGPSSGAPPPS-NH2
modifications: N-terminus assumed
SMILES: CC[C@H](C)[C@H](NC(=O)[C@H](CO)NC(=O)[C@H](Cc1ccc(O)cc1)NC(=O)[C@H](CC(=O)O)NC(=O)[C@H](CO)NC(=O)[C@@H](NC(=O)[C@](C)(Cc1ccccc1F)NC(=O)[C@@H](NC(=O)CNC(=O)[C@H](CCC(=O)O)NC(=O)C(C)(C)NC(=O)[C@@H](N)Cc1ccc(O)cc1)[C@@H](C)O)[C@@H](C)CC)C(=O)N[C@@H](C)C(=O)N[C@@H](CC(C)C)C(=O)N[C@@H](CC(=O)O)C(=O)N[C@@H](CCCCN)C(=O)N[C@@H](CCCCNC(=O)COCCOCCNC(=O)COCCOCCNC(=O)CC[C@H](NC(=O)CCCCCCCCCCCCCCCCCCC(=O)O)C(=O)O)C(=O)N[C@@H](Cc1c[nH]cn1)C(=O)N[C@@H](CCC(N)=O)C(=O)NC(C)(C)C(=O)N[C@@H](CC(=O)O)C(=O)N[C@@H](Cc1ccccc1)C(=O)N[C@H](C(=O)N[C@@H](CCC(=O)O)C(=O)N[C@@H](Cc1ccncc1)C(=O)N[C@@H](CC(C)C)C(=O)N[C@@H](CC(C)C)C(=O)N[C@@H](CCC(=O)O)C(=O)NCC(=O)NCC(=O)N1CCC[C@H]1C(=O)N[C@@H](CO)C(=O)N[C@@H](CO)C(=O)NCC(=O)N[C@@H](C)C(=O)N1CCC[C@H]1C(=O)N1CCC[C@H]1C(=O)N1CCC[C@H]1C(=O)N[C@@H](CO)C(N)=O)C(C)C
B2: Example 37 (peptide)
peptide: Y[Aib]EGT[αMePhe(2-F)]ISDYSIALDKK([AEEA-AEEA-γGlu-C20 diacid])HQ[Aib]DFVEYLLEGGPSSGAPPPS-NH2
modifications: N-terminus assumed
SMILES: CC[C@H](C)[C@H](NC(=O)[C@H](CO)NC(=O)[C@H](Cc1ccc(O)cc1)NC(=O)[C@H](CC(=O)O)NC(=O)[C@H](CO)NC(=O)[C@@H](NC(=O)[C@](C)(Cc1ccccc1F)NC(=O)[C@@H](NC(=O)CNC(=O)[C@H](CCC(=O)O)NC(=O)C(C)(C)NC(=O)[C@@H](N)Cc1ccc(O)cc1)[C@@H](C)O)[C@@H](C)CC)C(=O)N[C@@H](C)C(=O)N[C@@H](CC(C)C)C(=O)N[C@@H](CC(=O)O)C(=O)N[C@@H](CCCCN)C(=O)N[C@@H](CCCCNC(=O)COCCOCCNC(=O)COCCOCCNC(=O)CC[C@H](NC(=O)CCCCCCCCCCCCCCCCCCC(=O)O)C(=O)O)C(=O)N[C@@H](Cc1c[nH]cn1)C(=O)N[C@@H](CCC(N)=O)C(=O)NC(C)(C)C(=O)N[C@@H](CC(=O)O)C(=O)N[C@@H](Cc1ccccc1)C(=O)N[C@H](C(=O)N[C@@H](CCC(=O)O)C(=O)N[C@@H](Cc1ccc(O)cc1)C(=O)N[C@@H](CC(C)C)C(=O)N[C@@H](CC(C)C)C(=O)N[C@@H](CCC(=O)O)C(=O)NCC(=O)NCC(=O)N1CCC[C@H]1C(=O)N[C@@H](CO)C(=O)N[C@@H](CO)C(=O)NCC(=O)N[C@@H](C)C(=O)N1CCC[C@H]1C(=O)N1CCC[C@H]1C(=O)N1CCC[C@H]1C(=O)N[C@@H](CO)C(N)=O)C(C)C
B3: Example 38 (peptide)
peptide: Y[Aib]EGT[αMePhe(2-F)]ISDYSIALDKK([AEEA-AEEA-γGlu-C20 diacid])HQ[Aib]DFVE[4Pal]LLETGPSSGAPPPS-NH2
modifications: N-terminus assumed
SMILES: CC[C@H](C)[C@H](NC(=O)[C@H](CO)NC(=O)[C@H](Cc1ccc(O)cc1)NC(=O)[C@H](CC(=O)O)NC(=O)[C@H](CO)NC(=O)[C@@H](NC(=O)[C@](C)(Cc1ccccc1F)NC(=O)[C@@H](NC(=O)CNC(=O)[C@H](CCC(=O)O)NC(=O)C(C)(C)NC(=O)[C@@H](N)Cc1ccc(O)cc1)[C@@H](C)O)[C@@H](C)CC)C(=O)N[C@@H](C)C(=O)N[C@@H](CC(C)C)C(=O)N[C@@H](CC(=O)O)C(=O)N[C@@H](CCCCN)C(=O)N[C@@H](CCCCNC(=O)COCCOCCNC(=O)COCCOCCNC(=O)CC[C@H](NC(=O)CCCCCCCCCCCCCCCCCCC(=O)O)C(=O)O)C(=O)N[C@@H](Cc1c[nH]cn1)C(=O)N[C@@H](CCC(N)=O)C(=O)NC(C)(C)C(=O)N[C@@H](CC(=O)O)C(=O)N[C@@H](Cc1ccccc1)C(=O)N[C@H](C(=O)N[C@@H](CCC(=O)O)C(=O)N[C@@H](Cc1ccncc1)C(=O)N[C@@H](CC(C)C)C(=O)N[C@@H](CC(C)C)C(=O)N[C@@H](CCC(=O)O)C(=O)N[C@H](C(=O)NCC(=O)N1CCC[C@H]1C(=O)N[C@@H](CO)C(=O)N[C@@H](CO)C(=O)NCC(=O)N[C@@H](C)C(=O)N1CCC[C@H]1C(=O)N1CCC[C@H]1C(=O)N1CCC[C@H]1C(=O)N[C@@H](CO)C(N)=O)[C@@H](C)O)C(C)C
B4: Example 40 (peptide)
peptide: Y[Aib]EGT[αMePhe(2-F)]ISDYSIALDKK([AEEA-AEEA-γGlu-C20 diacid])HQ[Aib]DFVEWLLETGPSSGAPPPS-NH2
modifications: N-terminus assumed
SMILES: CC[C@H](C)[C@H](NC(=O)[C@H](CO)NC(=O)[C@H](Cc1ccc(O)cc1)NC(=O)[C@H](CC(=O)O)NC(=O)[C@H](CO)NC(=O)[C@@H](NC(=O)[C@](C)(Cc1ccccc1F)NC(=O)[C@@H](NC(=O)CNC(=O)[C@H](CCC(=O)O)NC(=O)C(C)(C)NC(=O)[C@@H](N)Cc1ccc(O)cc1)[C@@H](C)O)[C@@H](C)CC)C(=O)N[C@@H](C)C(=O)N[C@@H](CC(C)C)C(=O)N[C@@H](CC(=O)O)C(=O)N[C@@H](CCCCN)C(=O)N[C@@H](CCCCNC(=O)COCCOCCNC(=O)COCCOCCNC(=O)CC[C@H](NC(=O)CCCCCCCCCCCCCCCCCCC(=O)O)C(=O)O)C(=O)N[C@@H](Cc1c[nH]cn1)C(=O)N[C@@H](CCC(N)=O)C(=O)NC(C)(C)C(=O)N[C@@H](CC(=O)O)C(=O)N[C@@H](Cc1ccccc1)C(=O)N[C@H](C(=O)N[C@@H](CCC(=O)O)C(=O)N[C@@H](Cc1c[nH]c2ccccc12)C(=O)N[C@@H](CC(C)C)C(=O)N[C@@H](CC(C)C)C(=O)N[C@@H](CCC(=O)O)C(=O)N[C@H](C(=O)NCC(=O)N1CCC[C@H]1C(=O)N[C@@H](CO)C(=O)N[C@@H](CO)C(=O)NCC(=O)N[C@@H](C)C(=O)N1CCC[C@H]1C(=O)N1CCC[C@H]1C(=O)N1CCC[C@H]1C(=O)N[C@@H](CO)C(N)=O)[C@@H](C)O)C(C)C

Experiments:
Assay in all cases: cell-based or functional assay
[1] = biological target: T1, human glucose-dependent insulinotropic peptide receptor (human, UniProt P48546 22-466)
T1 sequence (looked up): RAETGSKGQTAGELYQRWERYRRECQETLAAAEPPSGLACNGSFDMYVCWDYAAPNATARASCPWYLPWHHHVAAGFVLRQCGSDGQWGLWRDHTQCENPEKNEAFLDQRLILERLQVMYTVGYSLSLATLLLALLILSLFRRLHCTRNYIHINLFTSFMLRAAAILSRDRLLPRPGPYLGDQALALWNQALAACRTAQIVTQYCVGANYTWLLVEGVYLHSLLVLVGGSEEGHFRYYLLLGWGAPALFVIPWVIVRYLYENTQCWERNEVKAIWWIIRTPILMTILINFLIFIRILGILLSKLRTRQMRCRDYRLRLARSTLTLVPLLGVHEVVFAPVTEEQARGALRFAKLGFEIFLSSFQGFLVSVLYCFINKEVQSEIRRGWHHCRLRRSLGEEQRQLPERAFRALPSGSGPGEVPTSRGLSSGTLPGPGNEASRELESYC

[2] = biological target: human GLP-1 receptor (human, UniProt P43220 24-463)
[3] = biological target: human glucagon receptor (human, UniProt P47871 26-477)
human glucagon receptor, sequence (P47871 26-477): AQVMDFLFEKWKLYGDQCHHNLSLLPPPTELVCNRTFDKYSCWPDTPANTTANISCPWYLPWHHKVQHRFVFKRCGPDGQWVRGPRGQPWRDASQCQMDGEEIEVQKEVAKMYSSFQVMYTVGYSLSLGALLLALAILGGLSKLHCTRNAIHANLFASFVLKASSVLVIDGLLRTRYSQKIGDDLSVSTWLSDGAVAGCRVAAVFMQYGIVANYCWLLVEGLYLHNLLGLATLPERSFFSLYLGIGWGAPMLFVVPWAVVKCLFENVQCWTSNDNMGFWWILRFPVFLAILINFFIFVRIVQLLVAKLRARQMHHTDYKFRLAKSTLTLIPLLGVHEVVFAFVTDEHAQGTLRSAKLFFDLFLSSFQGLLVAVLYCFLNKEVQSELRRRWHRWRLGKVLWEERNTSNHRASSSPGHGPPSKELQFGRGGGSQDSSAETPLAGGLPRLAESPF

Binder	hGIPR cAMP Rel EC50 [1] [nM]	hGLP1R cAMP Rel EC50 [2] [nM]	hGcgR cAMP Rel EC50 [3] [nM]
B1	0.0112	3330	> 5000
B2	0.036	61.1	> 5000
B3	0.0368	1390	> 5000
B4	0.033	2330	> 5000
